The source of these data is patent US20110256142A1 (Genmab, published 2011).

Numbering of substitutions follows the chain as printed.

Test [1] deals with T1, purified EGFR (Sigma-Aldrich, cat no. E3641) (UniProt P00533 25-1210, limits assumed).
T1 construct: Bought preparation coated on ELISA plates
The test can be described thus: ELISA, plate coated with purified EGFR, anti-human IgG Fc-HRP detection.

The target in test [2] is T2, EGFR-vIII deletion mutant expressed on transfected Ba/F3 and A431 cells (UniProt P00533 25-1210).
T2 construct: whole, on cells; Deletion variant, not expressible as substitutions; also called de2-7 EGFR
As to the kind of experiment: flow cytometry on Ba/F3 cells transfected with EGFR-vIII, FITC anti-human IgG F(ab')2 detection. Background: Flow cytometry measures light scatter and fluorescence of single cells or particles in a stream.

B1: Fully human IgG1,κ antibody 018 (P- or LC1006-018) (antibody, V domains shown)
VH: EVQLVESGGGLVQPGGSLRLSCAASGFTFSSYWMNWVRQAPGKGLEWVANIKKDGSEKYYVDSVKGRFTISRDNAKNSLYLQMNSLRAEDTAVYYCARDLGWGWGWYFDLWGRGTLVTVSS
VL: not shown
notes: Human IgG1,κ; P1006-018 uncloned, LC1006-018 cloned hybridoma; also called P1006-018
The term EC50 denotes the concentration that produces a half-maximal response. The low end stands for greater potency, the high end for weaker potency. In test [1], B1 had an EC50 of 0.081 µg/mL.

B2: Fully human IgG1,κ antibody 003 (P- or LC1006-003) (antibody, V domains shown)
VH: EVQLVESGGGLVQPGGSLRLSCAASGFTFSSYWMTWVRQAPGKGLEWVANIQQDGSEKNYLDSVKGRFTISRDNAKNSLSLQMNSLRAEDTAVYYCARTYSGFEDFWGQGTLVTVSS
VL: EIVLTQSPATLSLSPGERATLSCRASQSVSSYLAWYQQKPGQAPRLLIFDASNRATGIPARFSGSGSGTDFTLTISSLEPEDFAVYYCQQRSNWPPWTFGQGTKVEIK
notes: Human IgG1,κ; P1006-003 is the hybridoma before cloning, LC1006-003 the clone by limiting dilution; also called P1006-003
In turn, B2 yielded an EC50 in test [1] of 0.117 µg/mL. In addition, the binding result in test [2] was “no binding (tested: saturating concentrations)”.

B3: Fully human IgG1,κ antibody 008 (P- or LC1006-008) (antibody, V domains shown)
VH: B2 VH with T35S, Q52K, K58E, L61V, I70V, S80Y, F106Y
VL: B2 VL
notes: Human IgG1,κ; P1006-008 uncloned, LC1006-008 cloned hybridoma; also called P1006-008
B3 registered an EC50 in test [1] of 2.46 µg/mL. Further, the binding result in test [2] was “no binding (tested: saturating concentrations)”.
